{"source": "patent US20210054078A1", "binders": {"B1": {"name": "1G1.D8 scFv phage clone (scFv, part only; not given: scFv linker, part only)", "scFv, part": "QVQLVESGGGLVQPGRSLRLSCAASGFTFDDYAMHWVRQAPGKGLEWVSGISWNSGSIGYADSVKGRFTISRDNAKNSLYLQMNSLRAEDTAVYYCAKPRDISSWLGMDVWGQGTTVTVSSDIQMTQSPSSVSASVGDRVTITCRASQDISSWLAWYQQKPGKAPKLLIYAASSLQSGVPSRFSGSGSGTDFTLTISSLQPEDSATYYCQQTTNFPYTFGQGTKLEIKR"}, "B2": {"name": "ME4 scFv phage clone (scFv, V domains shown, part only)", "VH": "QVQLVESGAEVKKPGSSVKVSCKASGGTFNNYAVSWVRQAPGQGLEWMGRIIPILGIANYAQTFQGRVTITADKSTTTAYMELSSLRSEDTAVYYCARSYSGYAEGAFDIWGQGTMVTVSS", "VL": "QFVLTQPPSVSGAPGQRVTISCTGSSSNIGAGYDVHWYQQLPGTAPKVLIYGNSDRPSGVPDRFSGSKSGTSASLAITGLQGEDKATYYCQSYDSRLSGPVFGTGTKVTVLG", "modifications": "scFv linker not given; phage display"}, "B3": {"name": "ME4.B12 scFv phage clone (scFv, V domains shown, part only)", "VH": "B2 VH with Y100S, S101F, A104S, E105V", "VL": "B2 VL", "modifications": "scFv linker not given"}, "B4": {"name": "ME4.A12 scFv phage clone (scFv, V domains shown, part only)", "VH": "B2 VH with Y100H, S101W, E105H", "VL": "B2 VL", "modifications": "scFv linker not given"}, "B5": {"name": "ME4.A11 scFv phage clone (scFv, V domains shown, part only)", "VH": "B2 VH with Y100R, S101G, E105H", "VL": "B2 VL", "modifications": "scFv linker not given"}, "B6": {"name": "ME4.B10 scFv phage clone (scFv, V domains shown, part only)", "VH": "B2 VH with Y100A, S101R, E105H", "VL": "B2 VL", "modifications": "scFv linker not given"}, "B7": {"name": "ME4.A2 scFv phage clone (scFv, V domains shown, part only)", "VH": "B2 VH with Y100S, S101R, E105H", "VL": "B2 VL", "modifications": "scFv linker not given"}, "B8": {"name": "1G1 scFv phage clone (scFv, V domains shown, part only)", "VH": "QVQLVESGGGLVQPGRSLRLSCAASGFTFDDYAMHWVRQAPGKGLEWVSGISWNSGSIGYADSVKGRFTISRDNAKNSLYLQMNSLRAEDTAVYYCAKPRDISSWLGMDVWGQGTTVTVSS", "VL": "DIQMTQSPSSVSASVGDRVTITCRASQDISSWLAWYQQKPGKAPKLLIYAASSLQSGVPSRFSGSGSGTDFTLTISSLQPEDSATYYCQQTNNFPYTFGQGTKLEIKR", "modifications": "scFv linker not given; phage display"}, "B9": {"name": "1G1.E12 scFv phage clone (scFv, V domains shown, part only)", "VH": "B8 VH", "VL": "B8 VL with N92V, N93T", "modifications": "scFv linker not given"}}, "key": {"[1]": {"target": "human PD-L1 (soluble protein of the kinetic measurements) (human) (UniProt Q9NZQ7)", "sequence (Q9NZQ7 19-238 limits assumed)": "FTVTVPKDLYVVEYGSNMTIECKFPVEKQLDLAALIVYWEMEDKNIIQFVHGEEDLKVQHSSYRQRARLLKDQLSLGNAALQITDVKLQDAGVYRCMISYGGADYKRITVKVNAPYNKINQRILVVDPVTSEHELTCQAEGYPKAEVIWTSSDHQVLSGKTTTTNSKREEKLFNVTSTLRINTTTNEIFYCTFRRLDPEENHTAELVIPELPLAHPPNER", "experiment": "dissociation rate constant of scFv phage clone, method not named"}, "[2]": {"target": "mouse PD-L1 (soluble protein of the kinetic measurements) (mouse) (UniProt Q9EP73)", "sequence (Q9EP73 19-238 limits assumed)": "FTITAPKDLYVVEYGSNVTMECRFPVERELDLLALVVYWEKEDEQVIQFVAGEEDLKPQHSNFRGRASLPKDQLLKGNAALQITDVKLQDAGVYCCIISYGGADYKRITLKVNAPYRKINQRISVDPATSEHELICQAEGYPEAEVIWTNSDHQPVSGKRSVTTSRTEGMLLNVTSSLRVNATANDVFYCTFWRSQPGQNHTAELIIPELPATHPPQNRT", "experiment": "dissociation rate constant of scFv phage clone, method not named"}, "[3]": {"target": "Mouse PD-L1-HisTag (#50010-M08H, Sino Biological Inc.) (mouse) (UniProt Q9EP73)", "sequence (Q9EP73 19-238 limits assumed, stated change not applied)": "as the sequence (Q9EP73 19-238 limits assumed) above", "experiment": "ELISA, scFv phage supernatant on coated His-tag PD-L1, anti-M13-HRP"}, "[4]": {"target": "Human PD-L1-HisTag (#10084-H08H, Sino Biological Inc.) (human) (UniProt Q9NZQ7)", "sequence (Q9NZQ7 19-238 limits assumed)": "as the sequence (Q9NZQ7 19-238 limits assumed) above", "experiment": "ELISA, scFv phage supernatant on coated His-tag PD-L1, anti-M13-HRP"}, "[5]": {"target": "human PD-L1 on hPD-L1/CHO-K1 overexpressing cells (human) (UniProt Q9NZQ7)", "sequence (Q9NZQ7 19-290)": "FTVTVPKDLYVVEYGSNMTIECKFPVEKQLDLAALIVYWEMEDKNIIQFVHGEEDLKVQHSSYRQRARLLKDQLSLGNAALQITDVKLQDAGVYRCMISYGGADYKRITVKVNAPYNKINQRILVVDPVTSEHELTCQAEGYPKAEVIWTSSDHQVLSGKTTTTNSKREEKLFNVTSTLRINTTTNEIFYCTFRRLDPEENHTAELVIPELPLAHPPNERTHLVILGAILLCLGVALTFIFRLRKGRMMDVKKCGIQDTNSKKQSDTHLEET", "experiment": "flow cytometry, scFv phage supernatant on hPD-L1/CHO-K1 cells"}}, "note": "Where a chain is given by its changes, count along the chain named.", "data": [{"binder": "B1", "values": [{"measurement": "koff", "setting": "[1]", "value": 0.000242, "unit": "s⁻¹"}]}, {"binder": "B2", "values": [{"measurement": "koff", "setting": "[2]", "value": 0.000374, "unit": "s⁻¹"}, {"measurement": "koff", "setting": "[1]", "value": 0.000186, "unit": "s⁻¹"}, {"measurement": "OD450-630", "setting": "[3]", "value": 1.44}, {"measurement": "OD450-630", "setting": "[4]", "value": 1.66}]}, {"binder": "B3", "values": [{"measurement": "koff", "setting": "[2]", "value": 0.000753, "unit": "s⁻¹"}, {"measurement": "koff", "setting": "[1]", "value": 0.000177, "unit": "s⁻¹"}]}, {"binder": "B4", "values": [{"measurement": "koff", "setting": "[2]", "value": 0.00101, "unit": "s⁻¹"}, {"measurement": "koff", "setting": "[1]", "value": "< 1e-07", "unit": "s⁻¹"}]}, {"binder": "B5", "values": [{"measurement": "koff", "setting": "[2]", "value": 0.000486, "unit": "s⁻¹"}, {"measurement": "koff", "setting": "[1]", "value": "7.86e-05", "unit": "s⁻¹"}]}, {"binder": "B6", "values": [{"measurement": "koff", "setting": "[2]", "value": 0.000467, "unit": "s⁻¹"}, {"measurement": "koff", "setting": "[1]", "value": 0.00016, "unit": "s⁻¹"}]}, {"binder": "B7", "values": [{"measurement": "koff", "setting": "[2]", "value": 0.000852, "unit": "s⁻¹"}, {"measurement": "koff", "setting": "[1]", "value": 0.000183, "unit": "s⁻¹"}]}, {"binder": "B8", "values": [{"measurement": "koff", "setting": "[1]", "value": 0.000152, "unit": "s⁻¹"}, {"measurement": "OD450-630", "setting": "[3]", "value": 0.35}, {"measurement": "OD450-630", "setting": "[4]", "value": 1.38}, {"measurement": "% Gated in M1", "setting": "[5]", "value": 99.4, "unit": "%"}, {"measurement": "Geo Mean in M1", "setting": "[5]", "value": 184}, {"measurement": "Geo Mean, all events", "setting": "[5]", "value": 181}, {"measurement": "Mean in M1", "setting": "[5]", "value": 248}, {"measurement": "Mean, all events", "setting": "[5]", "value": 246}]}, {"binder": "B9", "values": [{"measurement": "koff", "setting": "[1]", "value": 0.000268, "unit": "s⁻¹"}]}]}
